The nature of test [1]: Competitive ELISA for specificity / cross-reactivity against bioactive lipids. It is filed as binding. To be noted: for cross-reactivity to sphingosylphosphorylcholine (SPC): competitor SPC. On the procedure:
Screening of serum and cell supernatant for S1P-specific antibodies was by direct ELISA using a thiolated SIP analog as the antigen. A standard ELISA was performed, as described below, except that 50 ul of sample (serum or cell supernatant) was diluted with an equal volume of PBS/0.1% Tween-20 (PBST) during the primary incubation. ELISAs were performed in 96-well high binding ELISA plates (Costar) coated with 0.1 μg of chemically-synthesized thiolated-S1P conjugated to BSA in binding buffer (33.6 mM Na2CO3, 100 mM NaHCO3; pH 9.5). The thiolated-S1P-BSA was incubated at 37° C. for 1 hr. at 4° C. overnight in the ELISA plate wells. The plates were then washed four times with PBS (137 mM NaCl, 2.68 mM KCl, 10.14 mM Na2HPO4, 1.76 mM KH2PO4; pH 7.4) and blocked with PBST for 1 hr. at room temperature. For the primary incubation step, 75 uL of the sample (containing the S1P to be measured), was incubated with 25 uL of 0.1 ug/mL anti-S1P mAb diluted in PBST and added to a well of the ELISA plate. Each sample was performed in triplicate wells. Following a 1 hr. incubation at room temperature, the ELISA plates were washed four times with PBS and incubated with 100 ul per well of 0.1 ug/mL HRP goat anti-mouse secondary (Jackson Immunoresearch) for 1 hr. at room temperature. Plates were then washed four times with PBS and exposed to tetramethylbenzidine (Sigma) for 1-10 minutes. The detection reaction was stopped by the addition of an equal volume of 1M H2SO4. Optical density of the samples was determined by measurement at 450 nm using an EL-X-800 ELISA plate reader (Bio-Tech).
For cross reactivity, a competitive ELISA was performed as described above, except for the following alterations. The primary incubation consisted of the competitor (S1P, SPH, LPA, etc.) and a biotin-conjugated anti-S1P mAb. Biotinylation of the purified monoclonal antibody was performed using the EZ-Link Sulfo-NHS-Biotinylation kit (Pierce). Biotin incorporation was determined as per kit protocol and ranged from 7 to 11 biotin molecules per antibody. The competitor was prepared as follows: lipid stocks were sonicated and dried under argon before reconstitution in DPBS/BSA [1 mg/ml fatty acid free BSA (Calbiochem) in DPBS (Invitrogen 14040-133)]. Purified anti-S1P mAb was diluted as necessary in PBS/0.5% Triton X-100. Competitor and antibody solutions were mixed together so to generate 3 parts competitor to 1 part antibody. A HRP-conjugated streptavidin secondary antibody (Jackson Immunoresearch) was used to generate signal.
The humanized variants were tested for specificity in a competitive ELISA assay (FIG. 1) against S1P and several other biolipids. This assay has the added benefit to allow for epitope mapping.
For orientation: In an ELISA, binding on a coated surface is turned into a signal by an enzyme label.

For test [2], the system named is fibroblasts (Swiss 3T3, cardiac fibroblasts, WI-38). In words: S1P-stimulated fibroblast proliferation, migration, collagen expression, myofibroblast differentiation. To be noted: 1 μg/mL antibody; 0.1-1 μM S1P. It is filed as cell-based. On the procedure: See Example 7, below, for experimental details. […] In these experiments, fibroblasts were serum-starved and then treated with 0, 0.1, 0.5, or 1 μM S1P+/−1 μg/mL SPHINGOMAB for 12-24 hr. […] SPHINGOMAB neutralized each of these S1P effects. SPHINGOMAB reduced perivascular fibrosis in vivo in a murine model of a permanent myocardial infarction (E).
S1P makes profound contributions to wound healing by activating fibroblast migration, proliferation and collagen production; SPHINGOMAB neutralizes these effects. Several studies using multiple types of fibroblasts confirm S1P's ability to promote wound healing: 1) S1P increased Swiss-3T3 fibroblast proliferation as measured by ^3H-thymidine incorporation using standard methods (FIG. 7A); 2) S1P promoted the migration of cardiac fibroblasts in a standard scratch wound healing assay. […] In each of these assays, SPHINGOMAB neutralized S1P's. It is anticipated that ocular fibroblasts would respond similarly to S1P and SPHINGOMAB.

B1: LT1002: murine monoclonal antibody to S1P, IgG1 kappa, hybridoma clone 306D326.26 (antibody, listed as Mus sp., V domains shown)
VH: QAHLQQSDAELVKPGASVKISCKVSGFIFIDHTIHWMKQRPEQGLEWIGCISPRHDITKYNEMFRGKATLTADKSSTTAYIQVNSLTFEDSAVYFCARGGFYGSTIWFDFWGQGTTLTVS
VL: ETTVTQSPASLSMAIGEKVTIRCITTTDIDDDMNWFQQKPGEPPNLLISEGNILRPGVPSRFSSSGYGTDFLFTIENMLSEDVADYYCLQSDNLPFTFGSGTKLEIK
With B1, in test [1] (Table 7), the “Specificity (ELISA)” value was “High”. For the same molecule, in test [1] (competitor C1P, listed as anti-S1P mAb), the “recognition of ceramide-1-phosphate (C1P)” value was “no antibody binding was observed”. Besides, in test [1] (competitor DH-S1P), the “cross-reactivity to dihydrosphingosine-1-phosphate (DH-S1P)” value is recorded as “did cross react”. Further, in test [1] (competitor LPA, listed as anti-S1P mAb), the “cross-reactivity to lysophosphatidic acid (LPA)” value was “exhibited no binding”. In addition, the “cross-reactivity to sphingosylphosphorylcholine (SPC)” value in test [1] (listed as SPHINGOMAB) is recorded as “to a lesser extent”; in test [1] (listed as anti-S1P mAb) it was “binding was somewhat reduced”. Also, in test [2], the “effect on S1P-stimulated fibroblast proliferation, migration, collagen expression, myofibroblast differentiation” value is given as “neutralized”.

(Values after patent publication US8614103B2, “Compositions and methods for treating sphingosine-1-phosphate (S1P) related ocular diseases and conditions” (Lpath, Inc., priority 2006, dated 2013).)
